Experiment [1] addresses T1, Uracil-DNA N-glycosylase from Atlantic cod (Atlantic cod, UniProt Q9I983 82-301).
T1 construct: Catalytic domain of uracil-DNA N-glycosylase (UNG) from Atlantic cod; Lanes et al., 2002). numbers count on: hUNG numbering; also called cUNG; cod UNG; source: recombinantly produced in E. coli; expression and purification as described previously (Assefa et al., 2012)
Kind of experiment: ITC; Ugi (267-667 µM, syringe) injected into UNG (20-50 µM, cell); 25°C; 20 mM sodium phosphate pH 7.5, 200 mM sodium chloride; single-site binding model. The settings on record: both partners purified. (In general: Isothermal titration calorimetry measures the heat released or taken up as one component is titrated into another.)

The target of experiment [2] is T2, human uracil-DNA N-glycosylase (human, UniProt P13051-2 1-304).
T2 construct: Human uracil-DNA N-glycosylase (UNG), recombinant; also called hUNG; human UNG; source: expression and purification as described previously (Assefa et al., 2012)
T2 sequence (P13051 94-313): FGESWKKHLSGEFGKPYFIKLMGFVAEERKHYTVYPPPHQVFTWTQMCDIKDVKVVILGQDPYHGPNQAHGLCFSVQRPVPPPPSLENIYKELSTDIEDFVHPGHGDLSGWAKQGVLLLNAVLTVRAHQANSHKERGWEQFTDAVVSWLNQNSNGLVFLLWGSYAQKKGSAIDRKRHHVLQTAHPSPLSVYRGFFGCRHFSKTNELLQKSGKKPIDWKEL
Described as above. As to conditions: both partners purified.

T1 sequence (Q9I983 entry or part of it): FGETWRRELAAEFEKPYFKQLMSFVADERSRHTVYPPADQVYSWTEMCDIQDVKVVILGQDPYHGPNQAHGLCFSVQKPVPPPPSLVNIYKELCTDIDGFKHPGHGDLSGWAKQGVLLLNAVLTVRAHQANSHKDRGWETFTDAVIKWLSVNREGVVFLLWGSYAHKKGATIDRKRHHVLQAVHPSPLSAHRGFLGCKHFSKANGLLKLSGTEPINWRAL

B1: uracil-DNA N-glycosylase inhibitor (Ugi) (natural protein)
chain: MTNLSDIIEKETGKQLVIQESILMLPEEVEEVIGNKPESDILVHTAYDESTDENVMLLTSDAPEYKPWALVIQDSNGENKIKML
notes: expressed from a recombinant pRSETb plasmid provided by T. Géoui; source: E. coli BL21 (DE3) pLysS, purified (heating to 95°C, Q-Sepharose, Superdex 75)
Regarding B1, in experiment [1], the Ka was determined as 3.25e+07 M⁻¹; binding was characterised by a dissociation constant (Kd) of 0.031 µM; the dH is -25.1 kJ/mol; the stoichiometry N (commonly the number of molecules, sites or subunits per partner or assembly) was determined as 0.994. In addition, in experiment [2], the Ka was 1.5e+06 M⁻¹; the affinity, expressed as Kd, was 0.685 µM; the dH is -9.4 kJ/mol; the “stoichiometry N” value was determined as 0.921.

Source of the values: article PMC4118823, “Structural and biophysical analysis of interactions between cod and human uracil-DNA N-glycosylase (UNG) and UNG inhibitor (Ugi)” (Acta Crystallographica Section D: Biological Crystallography, 2014).
